Measurements reported in the Immune Epitope Database (IEDB).

Legend:
HLA-B*15:17 = experiment: IEDB peptide-MHC binding, purified MHC/competitive/fluorescence; filed as Kd, often an IC50 or EC50 that approximates it; ≥ and ≤ were set here for values at or beyond the usual limits of such assays; conditions: source organism: Rickettsia sibirica 246
HLA-B*51:01 = experiment: IEDB peptide-MHC binding, purified MHC/direct/fluorescence; filed as Kd, often an IC50 or EC50 that approximates it; ≥ and ≤ were set here for values at or beyond the usual limits of such assays
HLA-A*02:16 = experiment: as above
HLA-B*27:03 = experiment: as above
HLA-A*02:12 = experiment: as above
HLA-A*69:01 = experiment: as above
HLA-A*68:02 = experiment: as above
HLA-B*15:01 = experiment: as above
HLA-B*57:01 = experiment: as above
HLA-A*02:19 = experiment: as above
HLA-A*02:01 = experiment: as above
HLA-A*03:01 = experiment: as above
HLA-A*02:11 = experiment: as above
HLA-B*46:01 = experiment: as above
HLA-A*02:03 = experiment: as above
HLA-B*18:01 = experiment: as above
HLA-B*48:01 = experiment: IEDB peptide-MHC binding, purified MHC/competitive/fluorescence; filed as Kd, often an IC50 or EC50 that approximates it; ≥ and ≤ were set here for values at or beyond the usual limits of such assays
HLA-B*07:02 = experiment: as above; conditions: source organism: Influenza A virus (A/Fort Monmouth/1/1947-mouse adapted(H1N1))
HLA-C*07:02 = experiment: IEDB peptide-MHC binding, purified MHC/direct/fluorescence; filed as Kd, often an IC50 or EC50 that approximates it; ≥ and ≤ were set here for values at or beyond the usual limits of such assays; conditions: source organism: Entamoeba histolytica HM-1:IMSS
HLA-A*26:01 = experiment: as above
HLA-B*39:01 = experiment: as above
HLA-A*24:03 = experiment: as above; conditions: source organism: Salmonella enterica subsp. enterica serovar Typhimurium
HLA-A*30:02 = experiment: IEDB peptide-MHC binding, purified MHC/competitive/radioactivity; filed as Kd, often an IC50 or EC50 that approximates it; ≥ and ≤ were set here for values at or beyond the usual limits of such assays; conditions: source organism: Mammarenavirus machupoense
HLA-A*30:01 = experiment: as above; conditions: source organism: Mammarenavirus machupoense
HLA-A*32:01 = experiment: as above; conditions: source organism: Mammarenavirus machupoense
HLA-A*29:02 = experiment: as above; conditions: source organism: Mammarenavirus machupoense
HLA-A*01:01 = experiment: as above; conditions: source organism: Mammarenavirus machupoense
[1] = source organism: Rickettsia sibirica 246
[2] = source organism: Salmonella enterica subsp. enterica serovar Typhimurium
[3] = source organism: Mammarenavirus machupoense

Sequence: APVESMALF
- Kd (HLA-B*15:17): 15.1 µM
- Kd (HLA-B*51:01; [1]): ≥ 20 µM
- Kd (HLA-A*02:16; [1]): ≥ 20 µM
- Kd (HLA-B*27:03; [1]): ≥ 20 µM
- Kd (HLA-A*02:12; [1]): ≥ 20 µM
- Kd (HLA-A*69:01; [1]): ≥ 20 µM
- Kd (HLA-A*68:02; [1]): ≥ 20 µM
- Kd (HLA-B*15:01; [1]): ≥ 20 µM
- Kd (HLA-B*57:01; [1]): ≥ 20 µM
- Kd (HLA-A*02:19; [1]): ≥ 20 µM
- Kd (HLA-A*02:01; [1]): ≥ 20 µM
- Kd (HLA-A*03:01; [1]): ≥ 20 µM
- Kd (HLA-A*02:11; [1]): ≥ 20 µM
- Kd (HLA-B*46:01; [1]): ≥ 20 µM
- Kd (HLA-A*02:03; [1]): ≥ 20 µM
- Kd (HLA-B*18:01; [1]): ≥ 20 µM

Sequence: AQELVGHQL
- Kd (HLA-B*48:01; source organism: Escherichia coli O139:H28 str. E24377A): ≥ 20 µM

Sequence: FPSSSYRRPV
- Kd (HLA-B*07:02): 0.0016 µM

Sequence: FQFTLHWEL
- Kd (HLA-B*48:01; source organism: Entamoeba histolytica HM-1:IMSS): 0.726 µM
- Kd (HLA-C*07:02): 2.05 µM

Sequence: GQAARDKHL
- Kd (HLA-B*48:01; source organism: Burkholderia vietnamiensis G4): ≥ 20 µM

Sequence: LAMLVLHQV
- Kd (HLA-B*51:01; [2]): 0.416 µM
- Kd (HLA-B*27:03; [2]): ≥ 20 µM
- Kd (HLA-A*26:01; [2]): ≥ 20 µM
- Kd (HLA-B*15:01; [2]): ≥ 20 µM
- Kd (HLA-B*57:01; [2]): ≥ 20 µM
- Kd (HLA-A*03:01; [2]): ≥ 20 µM
- Kd (HLA-B*39:01; [2]): ≥ 20 µM
- Kd (HLA-A*24:03): ≥ 20 µM
- Kd (HLA-B*46:01; [2]): ≥ 20 µM
- Kd (HLA-B*18:01; [2]): ≥ 20 µM

Sequence: LITEQFLCY
- Kd (HLA-A*30:02): 1.86 µM
- Kd (HLA-A*30:01): 6.33 µM
- Kd (HLA-A*32:01): ≥ 25 µM
- Kd (HLA-A*29:02): 0.00132 µM
- Kd (HLA-A*01:01): 0.0647 µM
- Kd (HLA-B*51:01; [3]): ≥ 20 µM
- Kd (HLA-A*02:16; [3]): ≥ 20 µM
- Kd (HLA-B*27:03; [3]): ≥ 20 µM
- Kd (HLA-A*26:01; [3]): ≥ 20 µM
- Kd (HLA-A*02:12; [3]): ≥ 20 µM
- Kd (HLA-A*69:01; [3]): ≥ 20 µM
- Kd (HLA-A*68:02; [3]): ≥ 20 µM
- Kd (HLA-B*57:01; [3]): ≥ 20 µM
- Kd (HLA-A*02:19; [3]): ≥ 20 µM
- Kd (HLA-A*02:01; [3]): ≥ 20 µM
- Kd (HLA-A*02:11; [3]): ≥ 20 µM
- Kd (HLA-B*39:01; [3]): ≥ 20 µM
- Kd (HLA-A*02:03; [3]): ≥ 20 µM
- Kd (HLA-B*18:01; [3]): ≥ 20 µM
